Measured values reported in PMC2923608, “Structural Insights into the Quinolone Resistance Mechanism of Mycobacterium tuberculosis DNA Gyrase” (PLoS ONE, 2010).

Tests used:
[1] = target: the molecule itself; assay: AUC; sedimentation velocity, 20°C, 42000 rpm, 20 mM Tris pH 8; GA57BK at 1 mg/ml (17.5 µM)
[2] = target: the molecule itself; assay: AUC; sedimentation velocity, 20°C, 42000 rpm, 20 mM Tris pH 8; TopBK at 0.5, 1 and 4 mg/ml (18, 37 and 148 µM); the result is told for the concentration corresponding to the crystallization conditions; monomer and dimer

B1: breakage-reunion domain of DNA gyrase subunit A from M. tuberculosis (GA57BK) (domain or fragment)
chain: MTDTTLPPDDSLDRIEPVDIEQEMQRSYIDYAMSVIVGRALPEVRDGLKPVHRRVLYAMFDSGFRPDRSHAKSARSVAETMGNYHPHGDASIYDSLVRMAQPWSLRYPLVDGQGNFGSPGNDPPAAMRYTEARLTPLAMEMLREIDEETVDFIPNYDGRVQEPTVLPSRFPNLLANGSGGIAVGMATNIPPHNLRELADAVFWALENHDADEEETLAAVMGRVKGPDFPTAGLIVGSQGTADAYKTGRGSIRMRGVVEVEEDSRGRTSLVITELPYQVNHDNFITSIAEQVRDGKLAGISNIEDQSSDRVGLRIVIEIKRDAVAKVVINNLYKHTQLQTSFGANMLAIVDGVPRTLRLDQLIRYYVDHQLDVIVRRTTYRLRKANERAHILRGLVKALDALDEVIALIRASETVDIARAGLIELLDIDEIQAQAILDMQLRRLAALERQRIIDDLAKIEAEIADLEDILAKPERQRGIVRDELAEIVDRHGDDRRTRIIAAD
notes: DNA gyrase subunit A (GyrA), Mycobacterium tuberculosis, breakage-reunion domain, residues 1-502, 57 kDa; also called entire N-terminal GyrA domain
For B1, the “stoichiometry N” value [1] was 2.

B2: Toprim domain of DNA gyrase subunit B from Mycobacterium tuberculosis (TopBK) (domain or fragment)
chain: TDPRKSELYVVEGDSAGGSAKSGRDSMFQAILPLRGKIINVEKARIDRVLKNTEVQAIITALGTGIHDEFDIGKLRYHKIVLMADADVDGQHISTLLLTLLFRFMRPLIENGHVFLAQPPLYKLKWQRSDPEFAYSDRERDGLLEAGLKAGKKINKEDGIQRYKGLGEMDAKELWETTMDPSVRVLRQVTLDDAAAADELFSILMGEDVDARRSFITRNAKDVRFLDV
notes: DNA gyrase subunit B (GyrB), Mycobacterium tuberculosis, Toprim domain; the methods give residues 448-675, the results give 448-654 (the crystal model runs from T448 to E654); also called C-terminal GyrB domain
With B2 the “stoichiometry N” value [2] was 2.
